The text below walks through data of US20180086841A1 (Merck Sharp & Dohme, published 2018).

Common to all, as to test: flow cytometry on CHO-K1 transfectants, left sub-column, cell hatched (loss of binding)
For one assay, the target named is T1, P8A.
T1 construct: also called hCD27 P8A
T1 receptor chain: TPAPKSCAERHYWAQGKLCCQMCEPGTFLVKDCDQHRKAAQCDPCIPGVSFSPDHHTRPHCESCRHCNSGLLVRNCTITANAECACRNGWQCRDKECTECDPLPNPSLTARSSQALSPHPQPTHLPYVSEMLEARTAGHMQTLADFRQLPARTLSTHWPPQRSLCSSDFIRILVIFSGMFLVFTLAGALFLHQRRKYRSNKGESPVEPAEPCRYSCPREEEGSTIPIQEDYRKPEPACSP

Another assay concerns the target T2, K38A.
T2 construct: also called hCD27 K38A
T2 receptor chain: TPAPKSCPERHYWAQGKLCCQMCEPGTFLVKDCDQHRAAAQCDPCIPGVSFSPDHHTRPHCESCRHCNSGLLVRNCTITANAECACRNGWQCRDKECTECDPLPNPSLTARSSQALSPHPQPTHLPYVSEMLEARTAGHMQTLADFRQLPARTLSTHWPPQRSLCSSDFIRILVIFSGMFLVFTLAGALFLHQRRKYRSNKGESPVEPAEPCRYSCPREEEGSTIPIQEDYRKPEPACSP

The target in a further assay is T3, R37A.
T3 construct: also called hCD27 R37A
T3 receptor chain: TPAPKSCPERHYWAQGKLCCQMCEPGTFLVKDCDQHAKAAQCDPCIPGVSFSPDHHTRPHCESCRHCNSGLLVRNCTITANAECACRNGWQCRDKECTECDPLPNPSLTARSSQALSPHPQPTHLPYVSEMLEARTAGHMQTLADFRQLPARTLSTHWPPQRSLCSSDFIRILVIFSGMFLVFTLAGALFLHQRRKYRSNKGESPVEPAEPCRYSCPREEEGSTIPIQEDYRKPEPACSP

Protocol for K38A: (§1) The ability of several anti-hCD27 antibodies to bind to a series of hCD27 alanine mutants was determined using CHO-K1 cells, transiently transfected pCI-neo empty vector, pCI-neo.hCD27 and several pCI-neo.CD27Ala mutant constructs.
(§2) Detached cells were transferred to 96 wells round-bottomed well plates at approximately 1.2×10⁵ cells/well. After spinning down the cells, discarding the supernatants and re-suspending the cells in the residual volume, the primary antibodies were added and incubated for 30 minutes at 4° C. Cells were washed three times with DPBS/BSA 1%, followed by centrifugation, discarding of the supernatants and re-suspension in the residual volume. […] After washing once, antibody binding was detected using the HTS plate reader (FACS Canto II) and FlowJo software for data analysis. Debris, dead cells and doublets were excluded from the analysis. Binding was expressed as the geometric mean of the FITC signal, relative to antibody binding to hCD27, which was set at 100%.
Protocol for P8A: as §1, §2
Protocol for R37A: as §1, §2

B1: hCD27.131A (mouse parental 131A) (antibody, mouse IgG1, V domains shown)
VH: QIQLVQSGPELKKPGETVKISCKASGYTFTNYGMNWVKQAPGKGLKWMGWINTNTGEPTYAEEFKGRFAFSLETSATTAYLQINNLKNEDTATYFCAREGDAMDYWGQGTSVTVSS
VL: QIVLTQSPAIMSASPGEKVTMTCSASSSVSYMHWYQQKSGTSPKRWIYDTSKLASGVPARFSGSGSGTSYSLTISSMEAEDAATYYCQQWNSYPFTFGSGTKLEIK
notes: Mouse IgG1 antibody; also called mouse hCD27.131A
As to B1, the “binding, WT hCD27 = 100 (GM FITC)” value was found to be 44.9% with P8A, 48.2% in the assay with K38A and 50.3% in the assay with R37A.
